In the supplement of paper PMC10567573:

B1: TRIM63 (parent)
chain: QRITQEQEKKLSFIEALIQQYQEQ
B2: ZNF449 (parent)
chain: CTHCSKSFRQRAGLIMHQVTHFRG

Variants of: B1
Assay: protein stability index of a GFP-peptide fusion (GPS, HEK-293T) (PSI 1-6); higher = more stable
Conditions: c terminus: a fixed tail appended
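Further: lentivirally expressed fusions sorted by FACS into six bins by GFP to DsRed ratio, PSI derived from sequencing read proportions per bin multiplied by bin number.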

Row | Variant | protein stability index
1 | QRITQEQEKKLSFIEALIQQYREQ [Q22R] | 2.42
2 | QRITQEQEKKLSFIEALIQQYPEQ [Q22P] | 3.12
3 | QRITQEQEKKLSFIEALIQQYEEQ [Q22E] | 1.5
4 | QRITQEQEKKLSFIEALIQQYIEQ [Q22I] | 1.35
5 | QRITQEQEKKLSFIEALIQQYKEQ [Q22K] | 2.03
6 | QRITQEQEKKLSFIEALIQQYSEQ [Q22S] | 2.41
7 | QRITQEQEKKLSFIEALIQQYNEQ [Q22N] | 2.79
8 | QRITQEQEKKLSFIEALIQQYFEQ [Q22F] | 2.02
9 | QRITQEQEKKLSFIEALIQQYLEQ [Q22L] | 2.1
10 | QRITQEQEKKLSFIEALIQQYMEQ [Q22M] | 1.79
11 | QRITQEQEKKLSFIEALIQQYYEQ [Q22Y] | 2.62
12 | QRITQEQEKKLSFIEALIQQYTEQ [Q22T] | 2.22
13 | QRITQEQEKKLSFIEALIQQYGEQ [Q22G] | 2.89
14 | QRITQEQEKKLSFIEALIQQYHEQ [Q22H] | 2.52
15 | QRITQEQEKKLSFIEALIQQYCEQ [Q22C] | 2.48
16 | QRITQEQEKKLSFIEALIQQYDEQ [Q22D] | 1.77
17 | QRITQEQEKKLSFIEALIQQYQEY [Q24Y] | 1.66
18 | QRITQEQEKKLSFIEALIQQYQEV [Q24V] | 2.24
19 | QRITQEQEKKLSFIEALIQQYQEL [Q24L] | 2.16
20 | QRITQEQEKKLSFIEALIQQYQES [Q24S] | 1.98
21 | QRITQEQEKKLSFIEALIQQYQER [Q24R] | 2.06
22 | QRITQEQEKKLSFIEALIQQYQEF [Q24F] | 1.97
23 | QRITQEQEKKLSFIEALIQQYQEI [Q24I] | 2.52
24 | QRITQEQEKKLSFIEALIQQYQED [Q24D] | 1.82
25 | QRITQEQEKKLSFIEALIQQYQEN [Q24N] | 2.25
26 | QRITQEQEKKLSFIEALIQQYQEP [Q24P] | 2.68
27 | QRITQEQEKKLSFIEALIQQYQEA [Q24A] | 2.41

Row | Variant | protein stability index
28 | QRITQEQEKKLSFIEALIQQYQEK [Q24K] | 2.06
29 | QRITQEQEKKLSFIEALIQQYQET [Q24T] | 2.36
30 | QRITQEQEKKLSFIEALIQQYQEW [Q24W] | 1.46
31 | QRITQEQEKKLSFIEALIQQYQEH [Q24H] | 2.49
32 | QRITQEQEKKLSFIEALIQQYQEM [Q24M] | 2.57
33 | QRITQEQEKKLSFIEALIQQYQEC [Q24C] | 2.51
34 | QRITQEQEKKLSFIEALIQQYQEE [Q24E] | 2.14
35 | QRITQEQEKKLSFIEALIQQYQFQ [E23F] | 2.01
36 | QRITQEQEKKLSFIEALIQQYQGQ [E23G] | 2.57
37 | QRITQEQEKKLSFIEALIQQYQTQ [E23T] | 1.94
38 | QRITQEQEKKLSFIEALIQQYQPQ [E23P] | 1.95
39 | QRITQEQEKKLSFIEALIQQYQKQ [E23K] | 2.4
40 | QRITQEQEKKLSFIEALIQQYQLQ [E23L] | 2.65
41 | QRITQEQEKKLSFIEALIQQYQWQ [E23W] | 2.1
42 | QRITQEQEKKLSFIEALIQQYQVQ [E23V] | 2.34
43 | QRITQEQEKKLSFIEALIQQYQMQ [E23M] | 1.51
44 | QRITQEQEKKLSFIEALIQQYQDQ [E23D] | 2.62
45 | QRITQEQEKKLSFIEALIQQYQHQ [E23H] | 2.14
46 | QRITQEQEKKLSFIEALIQQYQNQ [E23N] | 1.9
47 | QRITQEQEKKLSFIEALIQQYQYQ [E23Y] | 1.99
48 | QRITQEQEKKLSFIEALIQQYQCQ [E23C] | 2.37
49 | QRITQEQEKKLSFIEALIQQYQSQ [E23S] | 2
50 | QRITQEQEKKLSFIEALIQQYQAQ [E23A] | 1.96
51 | QRITQEQEKKLSFIEALIQQYQRQ [E23R] | 1.97
52 | QRITQEQEKKLSFIEALIQQYQQQ [E23Q] | 2.18
53 | QRITQEQEKKLSFIEALIQQYQIQ [E23I] | 1.54

Variants of: B2
Assay: as above
Conditions: c terminus: a fixed tail appended

Row | Variant | protein stability index
54 | CTHCSKSFEQRAGLIMHQVTHFRG [R9E] | 2.15
55 | CTHCSKSFDQRAGLIMHQVTHFRG [R9D] | 3.85
56 | CTHCSKSFGQRAGLIMHQVTHFRG [R9G] | 2.18
57 | CTHCSKSFMQRAGLIMHQVTHFRG [R9M] | 2.9
58 | CTHCSKSFLQRAGLIMHQVTHFRG [R9L] | 1.96
59 | CTHCSKSFIQRAGLIMHQVTHFRG [R9I] | 1.94
60 | CTHCSKSFKQRAGLIMHQVTHFRG [R9K] | 2.81
61 | CTHCSKSFAQRAGLIMHQVTHFRG [R9A] | 2.58
62 | CTHCSKSFCQRAGLIMHQVTHFRG [R9C] | 2.33
63 | CTHCSKSFHQRAGLIMHQVTHFRG [R9H] | 1.87
64 | CTHCAKSFRQRAGLIMHQVTHFRG [S5A] | 1.98
65 | CTHCCKSFRQRAGLIMHQVTHFRG [S5C] | 2.1
66 | CTHCNKSFRQRAGLIMHQVTHFRG [S5N] | 1.88
67 | CTHCHKSFRQRAGLIMHQVTHFRG [S5H] | 2.03
68 | CTHCLKSFRQRAGLIMHQVTHFRG [S5L] | 1.49
69 | CTHCYKSFRQRAGLIMHQVTHFRG [S5Y] | 2.75
70 | CTHCWKSFRQRAGLIMHQVTHFRG [S5W] | 2.06
71 | CTHCPKSFRQRAGLIMHQVTHFRG [S5P] | 2.28
72 | CTHCRKSFRQRAGLIMHQVTHFRG [S5R] | 1.7
73 | CTHCTKSFRQRAGLIMHQVTHFRG [S5T] | 1.49
74 | CTHCEKSFRQRAGLIMHQVTHFRG [S5E] | 1.67

Row | Variant | protein stability index
75 | CTHCKKSFRQRAGLIMHQVTHFRG [S5K] | 2.52
76 | CTHCMKSFRQRAGLIMHQVTHFRG [S5M] | 1.56
77 | CTHCDKSFRQRAGLIMHQVTHFRG [S5D] | 1.73
78 | CTHCFKSFRQRAGLIMHQVTHFRG [S5F] | 1.7
79 | CTHCGKSFRQRAGLIMHQVTHFRG [S5G] | 2.06
80 | CTHCSCSFRQRAGLIMHQVTHFRG [K6C] | 1.52
81 | CTHCSASFRQRAGLIMHQVTHFRG [K6A] | 4.92
82 | CTHCSISFRQRAGLIMHQVTHFRG [K6I] | 2.47
83 | CTHCSESFRQRAGLIMHQVTHFRG [K6E] | 1.58
84 | CTHCSTSFRQRAGLIMHQVTHFRG [K6T] | 2.84
85 | CTHCSYSFRQRAGLIMHQVTHFRG [K6Y] | 2.62
86 | CTHCSMSFRQRAGLIMHQVTHFRG [K6M] | 1.88
87 | CTHCSLSFRQRAGLIMHQVTHFRG [K6L] | 2.3
88 | CTHCSDSFRQRAGLIMHQVTHFRG [K6D] | 1.62
89 | CTHCSRSFRQRAGLIMHQVTHFRG [K6R] | 1.91
90 | CTHCSQSFRQRAGLIMHQVTHFRG [K6Q] | 3.32
91 | CTHSSKSFRQRAGLIMHQVTHFRG [C4S] | 1.33
92 | CTHWSKSFRQRAGLIMHQVTHFRG [C4W] | 3.01
93 | CTHDSKSFRQRAGLIMHQVTHFRG [C4D] | 1.66
94 | CTHNSKSFRQRAGLIMHQVTHFRG [C4N] | 2.17
